A protein production outcome set (Wang et al. 2014)

Experiment: label from the status in PepcDB records

| Sequence | protein production |
| --- | --- |
| MKRKQESKGAGEKRQGAGGRGQGEKKQGKQGRQGRQGRQGEKSPVPSPQSPIPNPQFTTPNPDEWLQIGKIVSAQGLSGEVRVYPDSDFPERFEVPGTRWLLRPGQTEPQPIELLHGRYLENKNLYVLQLAGVENRSQSEELRGCMLFVPASDRPELGEDEYHVVDLIGMEVFLQASGDLVGAVVDVIPAGNDLLEVSLHEPVTSDKKPKTVLIPFVKAIAPVVDLQTRRIEITPPPGLLELGSGV | failed |
| MKFYIDDLPVLFPYPKIYPEQYNYMCDIKKTLDVGGNSILEMPSGTGKTVSLLSLTIAYQMHYPEHRKIIYCSRTMSEIEKALVELENLMDYRTKELGYQEDFRGLGLTSRKNLCLHPEVSKERKGTVVDEKCRRMTNGQAKRKLEEDPEANVELCEYHENLYNIEVEDYLPKGVFSFEKLLKYCEEKTLCPYFIVRRMISLCNIIIYSYHYLLDPKIAERVSNEVSKDSIVIFDEAHNIDNVCIESLSLDLTTDALRRATRGANALDERISEVRKVDSQKLQDEYEKLVQGLHSADILTDQEEPFVETPVLPQDLLTEAIPGNIRRAEHFVSFLKRLIEYLKTRMKVLHVISETPKSFLQHLKQLTFIERKPLRFCSERLSLLVRTLEVTEVEDFTALKDIATFATLISTYEEGFLLIIEPYEIENAAVPNPIMRFTCLDASIAIKPVFERFSSVIITSGTISPLDMYPRMLNFKTVLQKSYAMTLAKKSFLPMIITKGSDQVAISSRFEIRNDPSIVRNYGSMLVEFAKITPDGMVVFFPSYLYMESIVSMWQTMGILDEVWKHKLILVETPDAQETSLALETYRKACSNGRGAILLSVARGKVSEGIDFDHQYGRTVLMIGIPFQYTESRILKARLEFMRENYRIRENDFLSFDAMRHAAQCLGRVLRGKDDYGVMVLADRRFSRKRSQLPKWIAQGLSDADLNLSTDMAISNTKQFLRTMAQPTDPKDQEGVSVWSYEDLIKHQNSRKDQGGFIENENKEGEQDEDEDEDIEMQ | failed |
| MVSKECCRNEIRAAIRQLSDRCLYSAAKWAGEQLVGIEQDPSNFTPANTRFQRGSSSIRRRFSTNESISTPLPSVGFSQAATPLPEEDEAIDGDIYLLAKSYFDCREYRRASHMLRDQVSKKSLFLRYYALYLAGEKRKEEEMIELEGPLGKSDAINRELVSLERDLSALRRTGAIDSFGLYLYGVVLKEKGNESLARASLVESVNSYPWNWSAWSELQSLCTSIEILNSLNLNNHWMKEFFLGNAYQELRMHTESLAKYEYLQGIFSFSNYIQAQTAKAQYSLREFDQVEIMFEELLRNDPYRVEDMDLYSNVLYAKEACAALSYLAHKVFLTDKYRPESCCIIGNYYSLKGQHEKAVMYFRRALKLNKKYLSAWTLMGHEYVEMKNTPAAIDAYRRAVDINPTDYRAWYGLGQAYEMMGMPFYALHYFRKSIFFLPNDSRLWIAMAKCYQTEQLYMLEEAIKCYKRAVNCTDTEGIALNQLAKLHQKLGRNEEAAYYFEKDLERMDAEGLEGPNMFEALVFLATHFKNHKKFEEAEVYCTRLLDYSGPEKEKAKSLLRGIRMAQTGFPSMDLEHFPI | failed |
| LTVTVTHSNEKHDLHVTSQQGSSEPVVQDLAQVVEEVIGVPQSFQKLIFKGKSLKEMETPLSALGIQDGCRVMLIGKKN | not failed |
| MEEVLKLKIPASTANLGVGFDSIGMALDKYLHMSIRKIERSNWEFLYYSSELEGLPKDENNYIYQTALNVAHKYNVTLPSLQIEMRSDIPLARGLGSSASALVGALFIANYFGNIQLSKYELLQLATEIEGHPDNVAPTIYGGLIAGFYNPITKIT | failed |
| MVRVRFAPSPTGFLHVGGARTALFNFLFARKEKGKFILRIEDTDLERSEREYEEKLMESLRWLGLLWDEGPDVGGDHGPYRQSERVEIYREHAERLVKEGKAYYVYAYPEEIEEMREKLLSEGKAPHYSQEMFEKFDTPERRREYEEKGLRPAVFFKMPRKDYVLNDVVKGEVVFKTGAIGDFVIMRSNGLPTYNFACVVDDMLMEITHVIRGDDHLSNTLRQLALYEAFEKAPPVFAHVSTILGPDGKKLSKRHGATSVEAFRDMGYLPEALVNYLALLGWSHPEGKELLTLEELISSFSLDRLSPNPAIFDPQKLKWMNGYYLRNMPIEKLAELAKPFFEKAGIKIIDEEYFKKVLEITKERVEVLSEFPEESRFFFEDPAPVEIPEEMKEVFSQLKEELQNVRWTMEEITPVFKKVLKQHGVKPKEFYMTLRRVLTGREEGPELVNIIPLLGKEIFLRRIERSLGG | not failed |
| MDKKPLNTLISATGLWMSRTGTIHKIKHHEVSRSKIYIEMACGDHLVVNNSRSSRTARALRHHKYRKTCKRCRVSDEDLNKFLTKANEDQTSVKVKVVSAPTRTKKAMPKSVARAPKPLENTEAAQAQPSGSKFSPAIPVSTQESVSVPASVSTSISSISTGATASALVKGNTNPITSMSAPVQASAPALTKSQTDRLEVLLNPKDEISLNSGKPFRELESELLSRRKKDLQQIYAEERENYLGKLEREITRFFVDRGFLEIKSPILIPLEYIERMGIDNDTELSKQIFRVDKNFCLRPMLAPNLYNYLRKLDRALPDPIKIFEIGPCYRKESDGKEHLEEFTMLNFCQMGSGCTRENLESIITDFLNHLGIDFKIVGDSCMVYGDTLDVMHGDLELSSAVVGPIPLDREWGIDKPWIGAGFGLERLLKVKHDFKNIKRAARSESYYNGISTNL | not failed |
| MTMSTTREIAFLIARILLGVILIAHGWDKFAITGLEGVTGFFDSLGIPAAGIAAIAAAVVELLGGILIILGVFTRIVAAFVAIDMLFAALFAHVSSGIFVTNNGWELTGAIGAGALLLIAVGAGAWSIDGVLAKRKA | failed |
| MNSTLKSSVYILLIISVILVLNGYSYADSYVGGKPLDTLQNGTVTGDVNVDSYYGFTDPEGVGNNTGGNANITYTFNYTIPSNAQIKNATLYVLVYSGHMQEARQTYVNVTYNGNSLENQTLYTTYIYPPEGNNNTWLLGEGHDNDPYLMINNHTMRVTSDYLLWYDVTNMTKKDMNNTANVCTIGSYDGRIKLITLIVAYNIPGSTTATRYWINWGHDVSSYNDEDYTGETYFNGAVPNPANASVMIVHAASSDGIYTYNDQNLPNGTYQRRGSYSGYEIWNVTNIYNNGTNKFTYHKSPGTGLGGYYKIILAVQKVTYTPNIDLTLQTVTFNGGAAFVLENNTMRCQIKNNGSGASPATILALYANDELVATSIIPPINPSGTVYVNITDPTIRSATTETLYSNNNQNVTYRFVIDPYNEVPETNEANNEKTRTVPVLYNGYKG | failed |
| MLTLLSPCTLPVIPLLFASVRGRRGQLAIMLAGMALMFGAVSWLVTVASGWVVNLTLAGRGLALAFFALVGLSLLSQRVAQRLTSPLVALGNQLNDASSRQRGWIGSLLAGLAVGLLWAPCAGPVLGAILSLGFVHPGQATTGGLLLAYGSGGALMLFLLGWCGAALIARLRRGQAFGERLRRLAGGAMLASVALIASGGDRYLQSAGGLSQALEQRLAARLPQPEQKTSLQPIAAPQPSSAMPSLAGGSAWINSPALTPERLKGKVVLVDFWTRECINCQHTLPYVRDWANKYRAAGLVVIGVHTPEYPWERSLPLLRQAVKDWRITYPVVADNEYAIWNAFGNQYWPAHYIFDARGQLRYTAFGEGDYARQEQVIQQLLQESKA | failed |
| PELPTCLTRRLADYATEKPLVRLFFQGEEATVPFISQTSRELNMDINILLANIDRFDGVTCGVLVVELTANPLLLEAFINRCEQAGITVEVLGYVLPDGL | not failed |
| MGLKIIHNEGIEMKLQLKADLGLLLVTFFWGASILLTKVGLEGIEEYNLIALRFIIAFLLSGLIFYKHLFKIDFKTVKYAFILASVLFIVYIFATFGTKYTSVSNAGFLLCLTVIFIPILSAIFLKHIPEQKVIVGIILTIIGIGLLTLTSEFKIGNGDIFCILSALFYAIHVIITGSVTKHVNSIALGVVQLGFVGLFSLIFSFIIETPKLPSTINSWLIILALSIFCTAVAFIVQVIAQQYTTPTHTGLIFSLEPVFSAGFAFVFTGETLTRKGYLGATLILVSVLIAEVDFKSLLRVNYKKNVE | failed |
| MDNRNIDPYFNPEQFLETQKYKGTVTALIFLLLFFIFLMVAFKKAFFAQANMPNLVMSKQDTAARGTIYSQDNYSLATSQTLFKLGFDTRFLNPDKEDFFIDFLSIYSNIPKKSLKDAINTKGYIILAYDLTPNMAANIRDLNKKFLAFGVFQNFKDAHDKVWQKQGLNIEVSGVSRHYPYQNSLEPIIGYVQKQEEDKLTLTTGKKGVEKSQDHLLKAQQNGIRTGKRDVSFNFIQNHSYTEVERLDGYEVYLSVPLKLQREIETLLDKTKDKLKAKEILVGIINPKSGEILSLASSKRFNPNAIKTSDYESLNLSVAEKVFEPGSTIKPIVYSLLLDKNLINPKERIDLNHGYYQLGKYTIKDDFIPSKKAVVEDILIQSSNVGMIKISKNLNPKDFYNGLLGYGFSQKTGIDLSLEATGKIPPLSAFKREVLKGSVSYGYGLNATFLQLLRAYAVFSNEGKLTTPYLVQRETAPNGDIYIPSPKPTFQVISPKSARKMKETLIKVVRYGTGKNAQFEGLYIGGKTGTARVAKNGSYSAQSYNSSFFGFAEDERQVFTIGVVILGSHGKEEYYASKIAAPIFKEITEILVRYNYLSPSIAIQNALEKNRFKIK | failed |
| MNIQIKKRFLANLLLFSLFCLKAETLSEDHQILLSSDAFHRGDFAAAQKGYMNLYKQTNKVVYAKEAAISAASLGDIKTAMHLAMLYQKITNNRNDVSINKILVDGYAQMGQIDKAIELLHKIRKEEKTIATDNVLGTLYLTQKRLDKAFPLLNKFYNQVHDEDSLEKLITIYFLQNRKKEGLDLLQSHIDRYGCSEQLCQKALNTFTQFNELDLAKTTFARLYEKNPIVQNAQFYIGVLILLKEFDKAQKIAELFPFDRRLLLDLYTAQKKFDQASKQASLIYQEKKDPKFLGLEAIYHYESLSANKKKLTKEEMLPIIQKLEQATKERQAWLAKTKDKEDAQDAFFYNFLGYSLIDYDMDIKRGMDFVRKALALDSGSVLYLDSLAWGYYKLGNCLEAKKIFSSIAKESIQAEPELKEHNKIIQECKK | failed |
| MRRKLRYLNYRILIPYLILVVVGIILVYSASSDILLVNGFKPDVYGIRQAIYAAVAFFGFGIPFFALRLKVIKNPKFVAGFLIICILMLLWLVFLRFAHGSAAAVNGAVGWINLGFINLQPLEVTKLALVIYLAYVLDRRDGKLVRGKIKDNLSHPAMLAGFLMCLVIVEPDFGGTAILFMITLVMFSVSGVPVRLALTWLLGIILLVGAVFILVVLWNPKFLQDSYQFQRLMSFLHPFQLERKGGAQLVNSYYAIHNGGLFGVGLGNSMQKRGYLPEPYTDFILSITAEEIGVIFTIVLVGLLFYLMWQIMEVGINAVSQFDALICFGVTTIIFTEALFNIGAVLGLLPITGVTLPFISYGGSSMIVLTAAIGLVLNVSANEKMLKEKDETIA | failed |
| MMTRNKEFPMQMQSVTPARLVTTGLAFGESPRWHGGRLWVCNWGTSEIIATDAHGNREIMLIVPAVLPYSIDWLQDGRLLVVSGREGLLLRQEVDGKLVTHADLRGLSKSPWNEIVVDGRGNIYVNGGGPAPAAGEYFGPGTVVLITADGAVRQVADDIAFANGMAVTPDNKTLILAESHGNRLTAFDIAADGSLSNRRAWADLDGYPDGICLDAEGAVWYADVPNKHCVRVREGGEVLQTVTVDRGCFACMLGGADRRTLFIVAAEWRGFEHMVGDARTGQVLSVDAPAPGVGWP | failed |
